From the RNAGym collection of RNA variant scans (doi:10.1093/molbev/msab373)

B1: Azoarcus group I ribozyme (parent)
chain: GUGCCUUGCGCCGGGAAACCACGCAAGGGAUGGUGUCAAAUUCGGCGAAACCUAAGCGCCCGCCCGGGCGUAUGGCAACGCCGAGCCAAGCUUCGGCGCCUGCGCCGAUGAAGGUGUAGAGACUAGACGGCACCCACCUAAGGCAAACGCUAUGGUGAAGGCAUAGUCCAGGGAGUGGCGAAAGUCACACAAACCGG

Variants of: B1
Test: reverse-splicing fitness (ratio to wild type); higher = more active; in vitro selection; Mg2+ level not given
Method in brief: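 An in vitro group I ribozyme library with randomized positions was T7-transcribed and gel-purified. In triplicate, 10 pmol RNA in EPPS pH 7.5 was reacted with 50 pmoles of a 30-nt RNA substrate for 1 h at 37 °C across several added MgCl2 levels (1–48 mM), then stopped with EDTA. Products were reverse transcribed from a substrate-complementary primer, PCR-amplified and sequenced (HiSeq 4000). Fitness is a variant's read proportion after selection over that before, normalised to wild type.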

Variant	reverse-splicing fitness
C82G A111C A120G C150A C169G U176A	0.0195
C82G A111C A120G C150A C169G U176C	0.025
C82G A111C A120C C169A	0.00716
C82G A111C A120C C169U	0.0148
C82G A111C A120C C169G	0.00886
C82G A111C A120G A145C C169A	0.00807
C82G A111C A120G A145C C169G	0.0134
C82G A111C A120G A145C C169U	0.00967
C82G A111C A120C A145U C150U U176A	0.0132
C82G A111C A120C A145U C150U U176C	0.02
C82G A111C A120C A145U C150U U176G	0.00688
C82G A111C A120G A145G C150A C169G U176C	0.0267
C82G A111C A120G A145G C150A C169G U176A	0.0158
C82G A111C A120G A145G C150A C169G U176G	0.0058
C82G A111C A120G A145C C150A C169U	0.00679
C82G A111C A120G A145C C150A C169G	0.00794
C82G A111C A120G A145C C150A C169A	0.00918
C82G A111C A120G A145C C150G C169G U176C	0.00726
C82G A111C A120G A145C C150G C169G U176A	0.00837
C82G A111C A120G A145C C150G C169G U176G	0.00499
C82G A111C A120C C150G	0.00951

Variant	reverse-splicing fitness
C82G A111C A120C C150U	0.0277
C82G A111C A120C C150A	0.0114
C82G A111C A120G A145U C150G C169G U176A	0.0071
C82G A111C A120G A145U C150G C169G U176C	0.00521
C82G A111C A120G A145U C150G C169G U176G	0.00512
C82G A111C A120G A145C C150G C169U	0.00721
C82G A111C A120G A145C C150G C169A	0.0084
C82G A111C A120G A145C C150G C169G	0.00722
C82G A111C A120G A145U C150U	0.0124
C82G A111C A120G A145U C150G	0.00698
C82G A111C A120G A145U C150A	0.00783
C82G A111C A120G C150U C169U U176G	0.00546
C82G A111C A120G C150U C169U U176C	0.0156
C82G A111C A120G C150U C169U U176A	0.0146
C82G A111C A120G A145G C150G C169A U176C	0.0135
C82G A111C A120G A145G C150G C169A U176G	0.00843
C82G A111C A120G A145G C150G C169A U176A	0.0144
C82G A111C A120G A145U C150A C169G U176C	0.0153
C82G A111C A120G A145U C150A C169G U176G	0.00522
C82G A111C A120G A145U C150A C169G U176A	0.0126
C82G A111C A120G A145G C169U U176G	0.00423

Variant	reverse-splicing fitness
C82G A111C A120G A145G C169U U176A	0.0161
C82G A111C A120G A145G C169U U176C	0.0145
C82G A111C A120G C150G C169G U176C	0.00508
C82G A111C A120G C150G C169G U176G	0.00467
C82G A111C A120G C150G C169G U176A	0.00677
C82G A111C A120G A145G C150U	0.0132
C82G A111C A120G A145G C150A	0.00945
C82G A111C A120G A145G C150G	0.00751
C82G A111C A120G A145U C150A C169U	0.00666
C82G A111C A120G A145U C150A C169G	0.00764
C82G A111C A120G A145U C150A C169A	0.00884
C82G A111C A120G A145G C150G C169G U176G	0.00591
C82G A111C A120G A145G C150G C169G U176C	0.0123
C82G A111C A120G A145G C150G C169G U176A	0.0101
C82G A111C A120G A145C C150A C169U U176G	0.0047
C82G A111C A120G A145C C150A C169U U176C	0.00999
C82G A111C A120G A145C C150A C169U U176A	0.0151
C82G A111C A120G A145U C150G C169U U176G	0.00536
C82G A111C A120G A145U C150G C169U U176C	0.0118
C82G A111C A120G A145U C150G C169U U176A	0.00847
C82G A111C A120G C150G U176C	0.0153

Variant	reverse-splicing fitness
C82G A111C A120G C150G U176G	0.00284
C82G A111C A120G C150G U176A	0.00843
C82G A111C A120G A145U U176C	0.0232
C82G A111C A120G A145U U176G	0.00575
C82G A111C A120G A145U U176A	0.016
C82G A111C A120G C150U C169A U176G	0.00607
C82G A111C A120G C150U C169A U176C	0.0135
C82G A111C A120G C150U C169A U176A	0.0141
C82G A111C A120G C150A C169U U176G	0.00512
C82G A111C A120G C150A C169U U176A	0.022
C82G A111C A120G C150A C169U U176C	0.0171
C82G A111C A120G C150G	0.00691
C82G A111C A120G C150U	0.0121
C82G A111C A120G C150A	0.0103
C82G A111C A120C C150G C169U	0.00996
C82G A111C A120C C150G C169G	0.00702
C82G A111C A120C C150G C169A	0.00742
C82G A111C A120G A145U C150G C169U	0.0085
C82G A111C A120G A145U C150G C169G	0.00781
C82G A111C A120G A145U C150G C169A	0.00965
